Two substances from PMC9083094 can be followed below.

Where “and” joins values, the source holds several entries; their conditions need not be identical. Equal entries are not always repeated.

In assay [1] the target is Aβ_(C18C33), mutant Aβ42 peptide containing an intramolecular disulfide bond. Briefly: SDS-PAGE.
For assay [2] the target is unchanged. Briefly: SDS-PAGE. This is another data set of the same source.
The target is the same in assay [3]. Nature of the assay: native MS.
For assay [4] the target is unchanged. Nature of the assay: native MS. The source holds these as a separate data set.
The target is the same in assay [5]. Briefly: SEC-MS.
For assay [6] the target is unchanged. Briefly: native MS. The source holds these as a separate data set.
Assay [7] addresses Aβ_(C24C29), mutant Aβ42 peptide with an intramolecular disulfide bond. Nature of the assay: SDS-PAGE.

With “Aβ_(C18C33), mutant Aβ42 peptide containing an intramolecular disulfide bond”, the stoichiometry N – broadly, a count of units in the complex or per binding partner – in assay [1] was 2; in assay [2] it was 2; in assay [3], 4; in assay [4] it was 4; in assay [5] it was 2; in assay [6], 2 and 4.

As for “Aβ_(C24C29), mutant Aβ42 peptide with an intramolecular disulfide bond”, in assay [7], the stoichiometry N was 3 and 4.
